Our source for the encoding yield values is US20230220589A1.

Test [1] addresses M44-modified V NTAA target peptides. In words: encoding assay; P2 V.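 Note: fraction of recording tags encoded.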
In test [2] the target is M44-modified G NTAA target peptides (M44-G-P2-peptide). Briefly: encoding assay; P2 V.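 Note: fraction of recording tags encoded.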
Test [3] addresses M44-modified E NTAA target peptides. In words: encoding assay; P2 V.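 Note: fraction of recording tags encoded.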
Test [4] has as its target M44-modified H NTAA target peptides. In words: encoding assay; P2 G.
Test [5] deals with M44-modified A NTAA target peptides (M44-A-P2-peptide). Briefly: encoding assay; P2 G.
In test [6] the target is M44-modified N NTAA target peptides. Briefly: encoding assay; P2 G.
For test [7], the target named is M44-modified S NTAA target peptides. In words: encoding assay; P2 G.
Test [8] addresses M44-modified D NTAA target peptides. In words: encoding assay; P2 G.
Test [9] addresses M44-modified P NTAA target peptides. Briefly: encoding assay; P2 G.
The target of test [10] is M44-modified G NTAA target peptides (M44-G-P2-peptide). Briefly: encoding assay; P2 E.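 Note: fraction of recording tags encoded.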
For test [11], the target named is M44-modified S NTAA target peptides. Briefly: encoding assay; P2 Y.
Test [12] deals with M17-modified M NTAA target peptides. Briefly: encoding assay; P2 V.
Test [13] concerns the target M17-modified S NTAA target peptides. Briefly: encoding assay; P2 V.
The target in test [14] is M17-modified Y NTAA target peptides (M17-Y-P2-peptide). Briefly: encoding assay; P2 V.
Test [15] deals with M17-modified V NTAA target peptides. In words: encoding assay; P2 V.
Test [16] concerns the target M17-modified P NTAA target peptides. In words: encoding assay; P2 V.
The target of test [17] is M17-modified F NTAA target peptides. In words: encoding assay; P2 V.
In test [18] the target is M17-modified A NTAA target peptides. Briefly: encoding assay; P2 V.
For test [19], the target named is M17-modified W NTAA target peptides. In words: encoding assay; P2 V.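 Note: fraction of recording tags encoded.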
Test [20] concerns the target M17-modified L NTAA target peptides. Briefly: encoding assay; P2 V.
The target in test [21] is M17-modified T NTAA target peptides. In words: encoding assay; P2 V.
Test [22] addresses M17-modified E NTAA target peptides. In words: encoding assay; P2 V.
Test [23] has as its target M17-modified I NTAA target peptides. Briefly: encoding assay; P2 V.
Test [24] has as its target M17-modified N NTAA target peptides. Briefly: encoding assay; P2 V.
Test [25] deals with M17-modified H NTAA target peptides. Briefly: encoding assay; P2 V.
Test [26] has as its target M17-modified Q NTAA target peptides. Briefly: encoding assay; P2 V.
For test [27], the target named is M17-modified G NTAA target peptides. Briefly: encoding assay; P2 V.
Test [28] addresses M17-modified D NTAA target peptides. Briefly: encoding assay; P2 V.
The target of test [29] is M17-modified M NTAA target peptides. In words: encoding assay; P2 G.
Test [30] addresses M17-modified S NTAA target peptides. Briefly: encoding assay; P2 G.
In test [31] the target is M17-modified Y NTAA target peptides (M17-Y-P2-peptide). Briefly: encoding assay; P2 G.
For test [32], the target named is M17-modified V NTAA target peptides. Briefly: encoding assay; P2 G.
The target of test [33] is M17-modified P NTAA target peptides. Briefly: encoding assay; P2 G.
Test [34] addresses M17-modified F NTAA target peptides. Briefly: encoding assay; P2 G.
The target of test [35] is M17-modified A NTAA target peptides. Briefly: encoding assay; P2 G.
The target of test [36] is M17-modified L NTAA target peptides. Briefly: encoding assay; P2 G.
Test [37] concerns the target M17-modified T NTAA target peptides. In words: encoding assay; P2 G.
In test [38] the target is M17-modified E NTAA target peptides. In words: encoding assay; P2 G.
Test [39] has as its target M17-modified I NTAA target peptides. Briefly: encoding assay; P2 G.
In test [40] the target is M17-modified N NTAA target peptides. Briefly: encoding assay; P2 G.
Test [41] deals with M17-modified H NTAA target peptides. In words: encoding assay; P2 G.
For test [42], the target named is M17-modified Q NTAA target peptides. Briefly: encoding assay; P2 G.
For test [43], the target named is M17-modified G NTAA target peptides. Briefly: encoding assay; P2 G.
Test [44] addresses M17-modified D NTAA target peptides. In words: encoding assay; P2 G.
Test [45] addresses M17-modified S NTAA target peptides. Briefly: encoding assay; P2 E.
In test [46] the target is M17-modified A NTAA target peptides. Briefly: encoding assay; P2 E.
For test [47], the target named is M17-modified T NTAA target peptides. Briefly: encoding assay; P2 E.
Test [48] addresses M17-modified S NTAA target peptides. In words: encoding assay; P2 Y.
The target in test [49] is M17-modified Y NTAA target peptides (M17-Y-P2-peptide). In words: encoding assay; P2 Y.
The target of test [50] is M17-modified F NTAA target peptides. In words: encoding assay; P2 Y.
For test [51], the target named is M17-modified A NTAA target peptides. Briefly: encoding assay; P2 Y.
In test [52] the target is M17-modified T NTAA target peptides. Briefly: encoding assay; P2 Y.
Test [53] addresses M17-modified E NTAA target peptides. In words: encoding assay; P2 Y.
The target in test [54] is M17-modified Q NTAA target peptides. In words: encoding assay; P2 Y.

Positions count from the first letter of the chain named.

B1: engineered M44-L binder (SEQ ID NO: 21) (designed binder, not shown: small tags and cut ends; large carriers)
chain: QVSVQPNFQQDKFLGRWFYAGHASNSSWYREKVAALSMAKLVVAPATDGGLNATETFLRKNQCETITSLLQPAGSLGSYSSRSPHGGSTWSTSVVETDYDQYALLYLQGSKGPGEDFRGAILASRTQTPRAELKEKFTAFSKAQGFTEDTIVFLPQTDKCMTEQ
As to B1, in [1], the encoding yield worked out at 0.01.

B2: engineered M44-A binder (SEQ ID NO: 42) (designed binder, not shown: small tags and cut ends; large carriers)
chain: QVSVQPNFQQDKFLGRWFVAGLASNSSWDREKVAALSGAKMVVAPATDGGLNVTRTMLRKNQCETYTGLLQPAGSLGSYSWRSPHPGSTGSESVVETDYDQYALVYGQGSKGPGEDLRAAALWSRTQTPRAELKEKFTAFSKAQGFTEDTIVFLPQTDKCMTEQ
As to B2, the encoding yield in test [2] came to 0.01; in test [3], 0.03; in [1] it was 0.01; in test [4] it was 0.02; in test [5], 0.07; in test [6], 0.01. The encoding yield was found to be 0.01 in test [7]; 0.01 in test [8]; 0.02 in [9]; 0.01 in test [10]; 0.01 in test [11].

B3: engineered M17-Y binder (SEQ ID NO: 61) (designed binder, not shown: small tags and cut ends; large carriers)
chain: TVPDRSEIAGKWYVVALASNTEFYLREKDWVKSAMARISFLGEDELKVSSAVPSPNGCYKVERTWKKTSDDGEVYNSRAAKLKVEVLDTDYKSYAVIYATRVKDGRTDHQMILYSRSPEVSPAATAIFRKLAGERNYTDEMVAMLPRQEECTVDEV
For the molecule B3, the encoding yield in test [12] was found to be 0.02; in test [13], 0.02; in test [14] it was 0.22; in [15] it was 0.01; in [16] it was 0.02; in [17] it was 0.13. Also, the encoding yield in test [18] is 0.02; in test [19], 0.04; in test [20] it was 0.02; in test [21], 0.03; in [22], 0.01; in test [23] it was 0.05. Also, the encoding yield in [24] amounted to 0.02; in test [25] it was 0.04; in test [26] it was 0.02; in [27], 0.01; in [28] it was 0.03; in test [29] it was 0.01. Also, the encoding yield was 0.01 in test [30]; 0.11 in [31]; 0.02 in test [32]; 0.01 in test [33]; 0.06 in test [34]; 0.01 in [35]. Also, the encoding yield worked out at 0.02 in test [36]; 0.03 in [37]; 0.02 in test [38]; 0.03 in test [39]; 0.01 in test [40]; 0.03 in [41]. Besides, the encoding yield in [42] is 0.02; in test [43], 0.01; in [44], 0.01; in [45] it was 0.02; in test [46], 0.02; in [47] it was 0.01. For the same molecule, the encoding yield in [48] amounted to 0.01; in [49] it was 0.15; in [50], 0.09; in test [51], 0.01; in test [52], 0.04; in test [53], 0.01. In test [54], the encoding yield turned out to be 0.01.

B4: upgraded binder after additional maturation round (SEQ ID NO: 62) (designed binder, not shown: small tags and cut ends; large carriers)
chain: B3 chain with E27G, W30R, A36V, L41Q, G105R, E119D
As for B4, the encoding yield in [12] is 0.03; in test [13], 0.03; in [14], 0.32; in test [15], 0.01; in test [16], 0.03; in [17] it was 0.17. Moreover, the encoding yield in [18] was 0.03; in test [19], 0.08; in test [20], 0.03; in test [21], 0.04; in test [22] it was 0.02; in [23] it was 0.07. The encoding yield turned out to be 0.03 in test [24]; 0.04 in [25]; 0.02 in test [26]; 0.02 in test [27]; 0.03 in test [28]; 0.02 in test [29]. For the same molecule, the encoding yield in [30] is 0.01; in test [31] it was 0.18; in test [32], 0.03; in test [33], 0.02; in test [34] it was 0.11; in test [35], 0.02. The encoding yield in test [36] stood at 0.03; in [37], 0.05; in test [38], 0.02; in test [39], 0.05; in test [40], 0.01; in [41], 0.03. Further, the encoding yield in test [42] turned out to be 0.02; in test [43] it was 0.01; in test [44], 0.02; in test [45], 0.03; in test [46], 0.03; in test [47], 0.02. In addition, the encoding yield came to 0.01 in test [48]; 0.21 in test [49]; 0.1 in test [50]; 0.03 in [51]; 0.04 in test [52]; 0.03 in test [53]. In test [54], this molecule had an encoding yield of 0.01.

B5: engineered M44-L binder (SEQ ID NO: 31) (designed binder, not shown: small tags and cut ends; large carriers)
chain: QDSTQNLIPAPPLISVPLQPGFWTERFQGRWFLVGFAGNAVQKERQSRLTMQSLILELQEDNSYNITAINVRGQGCRYIISTLVPSSRPGQFTLGNIHSYPQIQSLDVQVADTDYDQFAMVFLQGTSENKQYFEVALAGRTKGLSDELKERFVSFAKSLGLKDNNIVFSVPTDQCIDN
As to B5, the encoding yield in [2] worked out at 0.01; in test [3], 0.01; in test [4] it was 0.02; in test [5] it was 0.01; in test [6], 0.01; in [7], 0.01. Further, the encoding yield in test [8] was 0.01; in [9] it was 0.02; in test [10], 0.01; in test [11], 0.01.
